Measured values taken from patent US6207419A, “Thrombin inhibitory agents and methods of using same” (The University of North Carolina at Chapel Hill, priority 1999, dated 2001).

Legend:
[1] = biological target: T1, plasma purified α-thrombin (Homo sapiens, UniProt P00734); assay: Thrombin inhibition in the presence of glycosaminoglycans (heparin or dermatan sulfate); assay type: biochemical
T1 construct: Human α-thrombin, HCII, and ATIII were purified in our laboratory from plasma; from tissue; host or cells: human plasma (purified in the authors' laboratory)
Experimental: Protease inhibition rates were determined as described previously (Rogers, S. J., Pratt, C. W., Whinna, H. C., and Church, F. C. (1992) J. Biol. Chem. 267(6), 3613-3617; Whinna, H. C., Choi, H. U., Rosenberg, L. C., and Church, F. C. (1993) J. Biol. Chem. 268, 3920-3924; Ciaccia, A. V., Cunningham, E. L., and Church, F. C. (1995) Protein Express. Purific. 6, 806-812; Ciaccia, A. V., Willemze, A. J., and Church, F. C. (1997) J. Biol. Chem. 272(2), 888-893). All assays were performed at room temperature in 96-well microtiter plates previously coated with 2 mg/mL BSA.
In the presence of glycosaminoglycans, 5 nM rHCII (wt, CHis6, CHis5 Pro, L444R, or L444R-CHis6) was incubated with 0.5 nM thrombin and 0-1 mg/mL heparin or 0-4 mg/mL dermatan sulfate or 10 nM rATIII (wt or CHis6) was incubated with 1 nM thrombin or factor Xa and 0-1 mg/mL heparin in the presence of 2 mg/mL BSA in HNPN, pH 7.4.
(§1) Residual thrombin activity was measured with 150 μM GlyProArg-NA and 1 mg/mL pB in the absence of glycosaminoglycan, 2 mg/mL pB in the presence of heparin and 4 mg/mL in the presence of dermatan sulfate. Residual factor Xa activity was measured with 500 μM Spectrozyme FXa and 2mg/mL pB in the presence or absence of glycosaminoglycan. Residual chymotrypsin activity was measured with 150 μM AlaAlaProPhe-NA and residual trypsin activity was measured with 150 μM GlyProArg-NA. Substrate cleavage was measured by color development at 405 nM on a Vmax Kinetic Microplate Reader (Molecular Devices).
Assays were performed at least in triplicate on two or more recombinant protein preparations. All inhibition studies were measured under pseudo-first order conditions where inhibitor [I] is at least ten-fold higher than enzyme (protease) [E], and second-order rate constants were calculated as described previously (Ciaccia, A. V., Cunningham, E. L., and Church, F. C. (1995) Protein Express. Purific. 6, 806-812; Ciaccia, A. V., Willemze, A. J., and Church, F. C. (1997) J. Biol. Chem. 272(2), 888-893).

[2] = biological target: T2, α-thrombin (Homo sapiens, UniProt P00734); assay: Effect of hirugen on thrombin inhibition in the absence of glycosaminoglycan; assay type: biochemical
T2 construct: Human α-thrombin, HCII, and ATIII were purified in our laboratory from plasma; from tissue; host or cells: human plasma (purified in the authors' laboratory)
Experimental: as §1, with “GlyProArg-NA.” for “GlyProArg-NA. Substrate cleavage was measured by color development at 405 nM on a Vmax Kinetic Microplate Reader (Molecular Devices).”
Assays were performed at least in triplicate on two or more recombinant protein preparations.

B1: rHCII-CHis6: Recombinant HCII with six histidine residues added at the carboxyl terminus; SEQ ID NO:5 (protein)
chain: MKHSLNALLIFLIITSAWGGSKGPLDQLEKGGETAQSADPQWEQLNNKNLSMPLLPADFHKENTVTNDWIPEGEEDDDYLDLEKIFSEDDDYIDIVDSLSVSPTDSDVSAGNILQLFHGKSRIQRLNILNAKFAFNLYRVLKDQVNTFDNIFIAPVGISTAMGMISLGLKGETHEQVHSILHFKDFVNASSKYEITTIHNLFRKLTHRLFRRNFGYTLRSVNDLYIQKQFPILLDFRTKVREYYFAEAQIADFSDPAFISKTNNHIMKLTKGLIKDALENIDPATQMMILNCIYFKGSWVNKFPVEMTHNHNFRLNEREVVKVSMMQTKGNFLAANDQELDCDILQLEYVGGISMLIVVPHKMSGMKTLEAQLTPRVVERWQKSMTNRTREVLLPKFKLEKNYNLVESLKLMGIRMLFDKNGNMAGISDQRIAIDLFKHQGTITVNEEGTQATTVTTVGFMPLSTQVRFTVDRPFLFLIYEHRTSCLLFMGRVANPSRSHHHHHH
modifications: C-terminal His6 tag
- average dermatan sulfate concentration at which the maximal rate was measured (in parentheses), thrombin ([1]; Thrombin + dermatan sulfate, unit not printed in table (text b157: μg/mL)): 500
- average heparin concentration at which the maximal rate was measured (in parentheses), thrombin ([1]; Thrombin + heparin, unit not printed in table (text b156: μg/mL)): 5
- dermatan sulfate concentration at maximal rate of thrombin inhibition ([1]; dermatan sulfate): approximately 500 μg/mL
- maximal rate of thrombin inhibition in the presence of dermatan sulfate ([1]; dermatan sulfate at optimal concentration): 1.80±0.50×10^9 M^-1 min^-1
- decrease in the amount of heparin required for maximal activity versus wt-rHCII ([1]; heparin): ~20 fold
- heparin concentration at maximal rate of thrombin inhibition ([1]; heparin): 5 µg/mL
- maximal rate of thrombin inhibition in the presence of heparin ([1]; heparin at optimal concentration): 2.23±0.43×10^9 M^-1 min^-1
- Inhibition Rate k2 × 10^8 (M^-1 min^-1), Thrombin + dermatan sulfate ([1]; maximal rate of dermatan sulfate curve, mean ± S.D.): 18.0 ± 5.0 × 10^8 (M^-1 min^-1)
- Inhibition Rate k2 × 10^8 (M^-1 min^-1), Thrombin + heparin ([1]; maximal rate of heparin curve, mean ± S.D.): 22.3 ± 4.3 × 10^8 (M^-1 min^-1)
- Ratio (variant/wt), Thrombin + dermatan sulfate ([1]; maximal rates): 1.2
- Ratio (variant/wt), Thrombin + heparin ([1]; maximal rates): 2.4
- increase in the rate of thrombin inhibition with heparin versus wt-rHCII ([1]; maximal rates with heparin): > 2 fold
- increase of rate of thrombin inhibition with heparin ([1]; with heparin versus without): over 100,000 fold
- reduction of rate of thrombin inhibition by hirugen ([2]; hirugen 20 μM, absence of glycosaminoglycan): > 50%
- rate constant of inhibition (k2) in the absence of peptide ([2]; no hirugen, no control peptide, FIG. 5): 310 M⁻¹ s⁻¹
